From patent US20140341881A1
Residue numbers refer to the chain shown, from its start.

T1: human kallikrein 14 (hK14) (human) (UniProt Q9P0G3)
T1 sequence (looked up): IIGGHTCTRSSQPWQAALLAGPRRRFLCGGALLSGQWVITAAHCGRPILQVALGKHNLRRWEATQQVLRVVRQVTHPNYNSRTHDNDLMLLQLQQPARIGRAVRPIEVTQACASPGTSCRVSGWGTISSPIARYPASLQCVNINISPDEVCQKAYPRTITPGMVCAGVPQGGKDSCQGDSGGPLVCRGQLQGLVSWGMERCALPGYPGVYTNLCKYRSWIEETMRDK

B1: rACTWT (recombinant wild type alpha-1-antichymotrypsin) (protein, human)
chain: HHHHHHHPNSPLDEENLTQENQDRGTHVDLGLASANVDFAFSLYKQLVLKAPDKNVIFSPLSISTALAFLSLGAHNTTLTEILKGLKFNLTETSEAEIHQSFQHLLRTLNQSSDELQLSMGNAMFVKEQLSLLDRFTEDAKRLYGSEAFATDFQDSAAAKKLINDYVKNGTRGKITDLIKDLDSQTMMVLVNYIFFKAKWEMPFDPQDTHQSRFYLSKKKWVMVPMMSLHHLTIPYFRDEELSCTVVELKYTGNASALFILPDQDKMEEVEAMLLPETLKRWRDSLEFREIGELYLPKFSISRDYNLNDILLQLGIEEAFTSKADLSGITGARNLAVSQVVHKAVLDVFEEGTEASAATAVKITLLSALVETRTIVRFNRPFLMIIVPTDTQNIFFMSKVTNPKQA
B2: AATE8, P01009 25-418 (protein, human)
chain: HHHHHHEDPQGDAAQKTDTSHHDQDHPTFNKITPNLAEFAFSLYRQLAHQSNSTNIFFSPVSIATAFAMLSLGTKADTHDEILEGLNFNLTEIPEAQIHEGFQELLRTLNQPDSQLQLTTGNGLFLSEGLKLVDKFLEDVKKLYHSEAFTVNFGDTEEAKKQINDYVEKGTQGKIVDLVKELDRDTVFALVNYIFFKGKWERPFEVKDTEEEDFHVDQVTTVKVPMMKRLGMFNIQHCKKLSSWVLLMKYLGNATAIFFLPDEGKLQHLENELTHDIITKFLENEDRRSASLHLPKLSITGTYDLKSVLGQLGITKVFSNGADLSGVTEEAPLKLSKAVHKAVLTIDEKGTEAAGAMFLEALQRAIPPEVKFNKPFVFLMIEQNTKSPLFMGKVVNPTQK
B3: AATG9, P01009 25-418 (protein, human)
chain: B2 chain with A361T, L362V, Q363D, R364Y
B4: rACTWT (recombinant wild type alpha-1-antichymotrypsin), P01011 24-423 (protein, human)
chain: B1 chain
B5: ACTE8, P01011 24-423 (protein)
chain: MRGSHHHHHHSRHPNSPLDEENLTQENQDRGTHVDLGLASANVDFAFSLYKQLVLKAPDKNVIFSPLSISTALAFLSLGAHNTTLTEILKGLKFNLTETSEAEIHQSFQHLLRTLNQSSDELQLSMGNAMFVKEQLSLLDRFTEDAKRLYGSEAFATDFQDSAAAKKLINDYVKNGTRGKITDLIKDLDSQTMMVLVNYIFFKAKWEMPFDPQDTHQSRFYLSKKKWVMVPMMSLHHLTIPYFRDEELSCTVVELKYTGNASALFILPDQDKMEEVEAMLLPETLKRWRDSLEFREIGELYLPKFSISRDYNLNDILLQLGIEEAFTSKADLSGITGARNLAVSQVVHKAVLDVFEEGTEASAATAVKILQRAILVETRTIVRFNRPFLMIIVPTDTQNIFFMSKVTNPKQA
B6: ACTG9, P01011 24-423 (protein)
chain: B5 chain with I369T, L370V, Q371D, R372Y, I374A
B7: ACTC11, P01011 24-423 (protein)
chain: B5 chain with L370T, Q371L, A373Q, I374T, L375N
B8: ACTC11D, P01011 24-423 (protein)
chain: B5 chain with L370T, Q371L, A373Q, I374T, L375N, V376D
B9: AATG1, P01009 25-418 (protein, human)
chain: B2 chain with A361G, L362S, Q363L, A365S
B10: AATG1g, P01009 25-418 (protein, human)
chain: B2 chain with A361G, L362S, Q363L, A365G
B11: AATC11, P01009 25-418 (protein, human)
chain: B2 chain with L362I, Q363P, A365Q, I366T, P367N

biological target: T1, human kallikrein 14 (hK14) (human); assay: cell-based or functional assay
Also: test concentration or dose not given here.

In the case of B1, the % Inhibition is reported as 17%.

B1 was tested, and the Percentage inhibition was 17%.

biological target: trypsin (human), P07477; assay: cell-based or functional assay

Going from B2 to B3, the % Inhibition falls from 100% to 0%.

Compared with B4, B5 is higher in % Inhibition: 0% for the first, 100% for the second.

B7 and B8 are the same in % Inhibition: 100% for the first, 100% for the second.

B9 and B10 are the same in % Inhibition: 100% for the first, 100% for the second.

B11 showed a % Inhibition of 100%.

Going from B2 to B3, the Percentage inhibition falls from 100% to 0%.

Going from B4 to B5, the Percentage inhibition rises from 0% to 100%.

B6 was tested, and the Percentage inhibition was 0%.
